Patent publication US20080112926A1 (PROTAFFIN BIOTECHNOLOGIE, published 2008)
Where a chain is given by its changes, count along the chain named.

Biological target: the molecule itself
Assay: fluorescence anisotropy with bis-ANS in PBS, self-association (dimerisation), no GAG
Experimental: By recording the concentration dependent fluorescence anisotropy of the chemokine resulting from the extrinsic chromophore bisANS it was aimed to find out the dimerisation constant of the mutants. Measurements were performed in PBS starting with high concentrations (up to 4 μM protein) followed by stepwise dilution. For each data point, the anisotropy signal (r) recorded at 507 nm was averaged over 60 sec.
IL-8 oligomerisation has been reported to relevantly influence the proteins GAG binding properties. Set at monomeric concentration, IL-8 bound size defined oligosaccharides 1000-fold tighter than at dimeric concentration. Therefore, the oligomerisation properties of IL-8 mutants were investigated by fluorescence anisotropy. Since the IL-8 intrinsic fluorophore (Trp57) was not sensitive enough for all of the mutants, the extrinsic fluorophore bis-ANS was used for these measurements. […] The mutant with the highest koligo(koligo=460 nM), which therefore dimerised worst, was Δ6 F17RF21R E70RN71K. […] Also the impact of heparan sulphate addition was observed.

B1: IL-8 mutant Δ6 F17RF21R E70RN71K (ligand)
chain: CQCIKTYSKPRHPKRIKELRVIESGPHCANTEIIVKLSDGRELCLDPKENWVQRVVEKFLKRARKS
notes: Δ6 means the first 6 N-terminal amino acids are deleted
In the case of B1, the “koligo (oligomerisation constant)” value is reported as 460 nM.

B2: IL-8 mutant Δ6 F17RF21R E70K (ligand)
chain: B1 chain with R64K, K65N
notes: as for B1
In the case of B2, the “koligo (oligomerisation constant)” value is reported as 147 nM.
